Source: patent US20190316211A1, “ONCOGENIC ALTERNATIVE SPLICING SWITCH OF PACE4 IN CANCER” (SOCIETE DE COMMERCIALISATION DES PRODUITS DE LA RECHERCHE …, priority 2016, published 2019)

Assays:
recombinant PACE4 = target: T1, recombinant PACE4 (Homo sapiens, UniProt P29122); assay: GDF-15 spanning peptide cleavage monitored by HPLC; type: biochemical; details: 37° C., 1 h, pH 7.5
T1 construct: made in house; host or cells: S2 cells
T1 sequence (P29122 150-969): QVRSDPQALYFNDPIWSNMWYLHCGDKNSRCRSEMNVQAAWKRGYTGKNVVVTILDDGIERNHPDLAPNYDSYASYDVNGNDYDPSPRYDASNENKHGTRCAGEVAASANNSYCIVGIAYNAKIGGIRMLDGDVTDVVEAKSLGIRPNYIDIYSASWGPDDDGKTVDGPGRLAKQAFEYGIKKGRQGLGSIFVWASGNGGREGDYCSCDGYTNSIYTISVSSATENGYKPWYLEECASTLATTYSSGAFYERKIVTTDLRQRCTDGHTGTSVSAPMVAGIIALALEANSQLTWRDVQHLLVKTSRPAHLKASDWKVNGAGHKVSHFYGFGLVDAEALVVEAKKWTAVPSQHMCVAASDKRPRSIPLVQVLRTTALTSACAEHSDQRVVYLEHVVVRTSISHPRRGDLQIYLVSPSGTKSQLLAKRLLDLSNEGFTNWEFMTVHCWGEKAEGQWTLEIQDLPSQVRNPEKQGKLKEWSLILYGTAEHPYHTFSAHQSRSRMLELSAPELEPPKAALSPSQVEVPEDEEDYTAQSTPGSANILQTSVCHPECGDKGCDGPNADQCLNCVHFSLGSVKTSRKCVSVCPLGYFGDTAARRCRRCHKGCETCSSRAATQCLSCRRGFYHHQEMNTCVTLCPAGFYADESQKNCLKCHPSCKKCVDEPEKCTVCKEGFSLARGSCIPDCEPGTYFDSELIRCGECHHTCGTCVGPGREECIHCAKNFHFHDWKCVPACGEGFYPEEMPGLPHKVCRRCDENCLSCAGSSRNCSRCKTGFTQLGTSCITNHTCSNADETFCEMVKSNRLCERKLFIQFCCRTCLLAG
Source text: (§1) GDF-15 is known to supports both the proliferation and clonogenic potential of LNCaP cells, which is also in line with the observed phenotypes for both PACE4 knockdown and overexpressing cells. This protein is synthetized as a 35 kDa proprotein which requires a PC-based cleavage at the […]^196↓, site to generate a ˜17 kDa C-terminal mature form that associates as a disulfide-linked dimer further secreted in the medium. GDF-15 is only detected in LNCaP cells whereas DU145 express very low levels in both medium and cell lysates (FIGS. 10C and D). […]
(§2) GDF-15 peptide (40 μg) was incubated at 37° C. with recombinant PACE4 or soluble furin (16U) in 100 mM Hepes buffer containing 1 mM CaCl2, 1 mM 3-mercaptoethanol, and 1.8 mg/mL BSA, pH 7.5 (total sample volume: 300 μl) over a period of 1 h. […] After incubation, the reactions were immediately analyzed by the analytical HPLC (Agilent Technologies, 1100 series with a diode array detector and a fraction collector; injection volume: 95 μl, gradient: 2 to 25% […] in 50 min; [A]0.1% aq TFA and [B] acetonitrile+0.1% aq TFA; column: an Agilent Eclipse XDB C18 column (5 μm, 4.6×250 mm). The collected fractions were analysed by SELDI-TOF mass spectrometer (Bio-Rad Laboratories) to identify the cleavage product.

soluble furin = target: T2, soluble furin (Homo sapiens, UniProt P09958); assay: GDF-15 spanning peptide cleavage monitored by HPLC; type: biochemical; details: 37° C., 1 h, pH 7.5
T2 construct: recombinant PACE4 or soluble furin (16U); made in house; host or cells: S2 cells (said of recombinant PCs in general)
Source text: as §1, §2

T2 sequence (P09958 108-715 limits assumed): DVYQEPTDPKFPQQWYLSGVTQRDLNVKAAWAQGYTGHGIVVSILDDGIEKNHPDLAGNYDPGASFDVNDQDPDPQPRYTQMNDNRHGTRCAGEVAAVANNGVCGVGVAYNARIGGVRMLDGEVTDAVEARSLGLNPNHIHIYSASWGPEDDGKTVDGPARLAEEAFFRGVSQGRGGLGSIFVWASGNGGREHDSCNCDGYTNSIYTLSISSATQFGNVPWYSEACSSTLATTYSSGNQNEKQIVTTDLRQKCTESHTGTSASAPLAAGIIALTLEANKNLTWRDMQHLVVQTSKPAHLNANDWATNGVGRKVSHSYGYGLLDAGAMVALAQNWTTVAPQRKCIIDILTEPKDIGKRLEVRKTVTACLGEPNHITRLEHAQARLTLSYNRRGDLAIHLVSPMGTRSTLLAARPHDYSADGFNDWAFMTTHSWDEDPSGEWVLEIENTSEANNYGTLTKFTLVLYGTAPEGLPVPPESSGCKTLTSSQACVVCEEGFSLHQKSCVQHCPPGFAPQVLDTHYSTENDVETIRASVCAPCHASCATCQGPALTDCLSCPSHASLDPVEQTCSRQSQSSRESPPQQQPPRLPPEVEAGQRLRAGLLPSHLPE

Which results are given for “QAARGRRRARARNG (Ac-QAARGRRRARARNG-NH2) [synthetic N-acetylated peptide spanning the GDF-15 cleavage site]”?
cleavage of peptide at the QAARGRRRAR site (recombinant PACE4): cleaved by both PCs; cleavage of peptide at the QAARGRRRAR site (soluble furin): cleaved by both PCs
